Drawing on paper PMC10611751, this text covers Kd for three substances.

E-cadherin 751-775 (site-1), sequence (P09803 751-775): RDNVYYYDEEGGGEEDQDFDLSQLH
E-cadherin 828-869 (containing both site-2 and site-3), sequence (P09803 828-869): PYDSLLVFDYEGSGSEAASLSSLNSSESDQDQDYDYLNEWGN
E-cadherin C-terminal domain (residues 734-884), sequence (P09803 734-884): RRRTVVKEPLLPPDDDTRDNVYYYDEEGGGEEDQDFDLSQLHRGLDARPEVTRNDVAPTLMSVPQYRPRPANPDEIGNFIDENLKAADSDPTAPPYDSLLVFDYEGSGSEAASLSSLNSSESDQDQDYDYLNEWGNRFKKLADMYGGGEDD

For this assay, the target named is Ankyrin-G ANK repeats 8-24. Description: ITC; E-cadherin proteins in the syringe (e.g. 200 μM Trx-E-cadherin) titrated into AnkG in the cell (e.g. 20 μM Trx-AnkG R1-24); 25 °C; 50 mM Tris, 100 mM NaCl, 1 mM EDTA, 1 mM DTT, pH 7.8; one-site binding model. (In general: In ITC the heat of successive injections is recorded.)
As usually defined, the Kd is the constant that tells how readily two partners part at equilibrium. Low readings indicate tighter binding, high ones weaker binding. “E-cadherin 751-775 (site-1) (from UniProt P09803 751-775) (domain or fragment)” displayed a Kd of 1300 nM.

On to “E-cadherin C-terminal domain (residues 734-884) (from UniProt P09803 734-884) (domain or fragment)”, for which the Kd turned out to be 1500 nM.

In turn, “E-cadherin 828-869 (containing both site-2 and site-3) (from UniProt P09803 828-869) (domain or fragment)” came in with a dissociation constant (Kd) of 2500 nM.
